± gives the standard deviation of the averaged measurements.

For this series, the system named is Saccharomyces cerevisiae. Kind of series: protein stability index of tFT-peptide fusion (C-terminal peptide) (PSI (0-1 scale)); higher = more stable (slower turnover). Particulars: temperature: 30 C. As for the experimental part: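 MPS profiling in S. cerevisiae of the yeast C-terminome library: the last 12 aa of each annotated ORF are fused to the C-terminus of a sfGFP-mCherry timer, after a GGGS linker. Cells are FACS-sorted into 8 mCherry/sfGFP bins and deep-sequenced. PSI runs from 0 (unstable) to 1 (stable); wild type and das1Δ backgrounds, two technical replicates each.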

[1] abbreviates: genetic background: das1 deletion.

Regarding RKSTRSDNPHEA [CBF1 C-terminal 12 aa], the protein stability index under setting [1] was determined as 0.6989 ± 0.0016 and the protein stability index (genetic background: wild type) turned out to be 0.687 ± 0.017.

RLDRHFEKKKKV [RDS3 C-terminal 12 aa]: the protein stability index was 0.704 ± 0.023 under setting [1] and 0.7 ± 0.021 (genetic background: wild type).

As to RLEQGSNGFMFA [NAM8 C-terminal 12 aa], the protein stability index under setting [1] came to 0.702 ± 0.026 and the protein stability index (genetic background: wild type) was 0.699 ± 0.011.

With RLGASNSSNNDA [SLY1 C-terminal 12 aa], the protein stability index reads like this: under setting [1], 0.702 ± 0.022; (genetic background: wild type) 0.68 ± 0.018.

For RLRKWLSTFVHQ [YNL034W C-terminal 12 aa], the protein stability index was 0.756 ± 0.045 under setting [1] and 0.182 ± 0.017 (genetic background: wild type).

Turning to “RMYTRHKTSFPL [YAL042C-A C-terminal 12 aa]”, the protein stability index under setting [1] was 0.711 ± 0.02 and the protein stability index (genetic background: wild type) came out at 0.66427 ± 0.00065.

Turning to RNSGEKLVAVLK [YNL134C C-terminal 12 aa], the protein stability index was 0.691 ± 0.0088 under setting [1] and 0.6702 ± 0.0052 (genetic background: wild type).

Regarding “RNSPSYTGDHKT [YOR072W-A C-terminal 12 aa]”, the protein stability index amounted to 0.722 ± 0.02 under setting [1] and 0.6928 ± 0.0067 (genetic background: wild type).

In the case of RNWLGFCTKYEL [ATG15 C-terminal 12 aa], the protein stability index worked out at 0.741 ± 0.021 under setting [1] and 0.735 ± 0.047 (genetic background: wild type).

On to RPDSTAPSNENQ [PEP1 C-terminal 12 aa], for which the protein stability index reads like this: under setting [1], 0.7262 ± 0.00093; (genetic background: wild type) 0.7245 ± 0.0041.

On to RPFEIASFRLYF [AMS1 C-terminal 12 aa], for which the protein stability index by setting is: under setting [1], 0.703 ± 0.026; (genetic background: wild type) 0.683 ± 0.016.

Turning to RQYAGCKVNVGK [NUS1 C-terminal 12 aa], the protein stability index is 0.707 ± 0.015 under setting [1] and 0.705 ± 0.051 (genetic background: wild type).

RRIIESINKSQG [HAT1 C-terminal 12 aa]: the protein stability index by setting is: under setting [1], 0.659 ± 0.012; (genetic background: wild type) 0.6752 ± 0.0052.

With RRLEMEIANLQE [SPC34 C-terminal 12 aa], the protein stability index by setting is: under setting [1], 0.726 ± 0.036; (genetic background: wild type) 0.706 ± 0.028.

“RRQSLPKRFPLI [YAR035C-A C-terminal 12 aa]”: the protein stability index under setting [1] was 0.717 ± 0.014 and the protein stability index (genetic background: wild type) worked out at 0.697 ± 0.022.

For RSLLRKSKPLQA [RPM2 C-terminal 12 aa], the protein stability index reads like this: under setting [1], 0.675 ± 0.024; (genetic background: wild type) 0.639 ± 0.018.

RSPKKKKNYHKR [NUR1 C-terminal 12 aa]: the protein stability index by setting is: under setting [1], 0.74 ± 0.061; (genetic background: wild type) 0.6729 ± 0.006.

Consider RTGSQSPPSSSQ [MED7 C-terminal 12 aa], for which the protein stability index was 0.707 ± 0.022 under setting [1] and 0.673 ± 0.025 (genetic background: wild type).

For RVPQSRSFGNLR [NUM1 C-terminal 12 aa], the protein stability index was determined as 0.738 ± 0.012 under setting [1] and 0.746 ± 0.038 (genetic background: wild type).

As for RVSRMRAKRKYQ [YOR300W C-terminal 12 aa], the protein stability index was 0.712 ± 0.034 under setting [1] and 0.6764 ± 0.0037 (genetic background: wild type).

For the sequence RYAHIGGLHQRT [PRR2 C-terminal 12 aa], the protein stability index worked out at 0.709 ± 0.01 under setting [1] and 0.686 ± 0.018 (genetic background: wild type).

Consider RYIRHLQQNVST [PHO4 C-terminal 12 aa], for which the protein stability index reads like this: under setting [1], 0.688 ± 0.016; (genetic background: wild type) 0.683 ± 0.037.

As to RYIYAYINAQVQ [YHL005C C-terminal 12 aa], the protein stability index reads like this: under setting [1], 0.502 ± 0.03; (genetic background: wild type) 0.452 ± 0.0055.

Consider SDDDDYDEVANQ [UBC8 C-terminal 12 aa], for which the protein stability index amounted to 0.689 ± 0.031 under setting [1] and 0.664 ± 0.015 (genetic background: wild type).

Regarding SDLNVLLQIKHS [YNL228W C-terminal 12 aa], the protein stability index is, setting by setting: under setting [1], 0.7201 ± 0.00055; (genetic background: wild type) 0.31 ± 0.015.

In turn, SEEEEEEEWKGF [RRP1 C-terminal 12 aa] came in with a protein stability index under setting [1] of 0.68 ± 0.011 and a protein stability index (genetic background: wild type) of 0.673 ± 0.033.

For “SEKIYRRSLFKQ [YKL165C-A C-terminal 12 aa]”, the protein stability index runs as follows: under setting [1], 0.708 ± 0.03; (genetic background: wild type) 0.686 ± 0.044.

Consider SEYRRKQQEKKD [YPI1 C-terminal 12 aa], for which the protein stability index reads like this: under setting [1], 0.722 ± 0.019; (genetic background: wild type) 0.688 ± 0.023.

In the case of “SFGIGSKVFSSM [YHR063W-A C-terminal 12 aa]”, the protein stability index runs as follows: under setting [1], 0.711 ± 0.021; (genetic background: wild type) 0.695 ± 0.01.

As for SFTKSRIHLEFT [SPC105 C-terminal 12 aa], the protein stability index by setting is: under setting [1], 0.706 ± 0.024; (genetic background: wild type) 0.69832 ± 2.3e-05.

Consider SFWPHVAGELEY [INM2 C-terminal 12 aa], for which the protein stability index is, setting by setting: under setting [1], 0.72 ± 0.014; (genetic background: wild type) 0.693 ± 0.04.

Turning to SGGVLDSGDVSL [YGR182C C-terminal 12 aa], the protein stability index is, setting by setting: under setting [1], 0.684 ± 0.022; (genetic background: wild type) 0.661 ± 0.029.

Take “SHAALGNETNSL [YHR052C-B C-terminal 12 aa]”: the protein stability index reads like this: under setting [1], 0.6826 ± 0.0062; (genetic background: wild type) 0.684 ± 0.034.

As to SIIDKELENIDS [SGD1 C-terminal 12 aa], the protein stability index came out at 0.731 ± 0.027 under setting [1] and 0.681 ± 0.018 (genetic background: wild type).

Turning to SKGAQKRKNAKK [SHR3 C-terminal 12 aa], the protein stability index by setting is: under setting [1], 0.682 ± 0.009; (genetic background: wild type) 0.66 ± 0.022.

For the sequence SKKDYSIDSVEM [TPO2 C-terminal 12 aa], the protein stability index is, setting by setting: under setting [1], 0.698 ± 0.0055; (genetic background: wild type) 0.677 ± 0.014.

For the sequence SKRVYSICHYEF [ABM1 C-terminal 12 aa], the protein stability index is, setting by setting: under setting [1], 0.693 ± 0.018; (genetic background: wild type) 0.695 ± 0.012.

Consider SKVNSTRLVSRK [KAR3 C-terminal 12 aa], for which the protein stability index is 0.6908 ± 0.0058 under setting [1] and 0.723 ± 0.014 (genetic background: wild type).

Take SLEHFIDSVSSL [TRP4 C-terminal 12 aa]: the protein stability index turned out to be 0.7199 ± 0.0016 under setting [1] and 0.672 ± 0.013 (genetic background: wild type).

In the case of SLIDAKTGLPKE [MVD1 C-terminal 12 aa], the protein stability index runs as follows: under setting [1], 0.6964 ± 0.004; (genetic background: wild type) 0.706 ± 0.042.

In the case of SLVKTHNSSLCK [IAI11 C-terminal 12 aa], the protein stability index is, setting by setting: under setting [1], 0.663 ± 0.026; (genetic background: wild type) 0.689 ± 0.095.

For the sequence SNYGGNSTWGGH [SPT5 C-terminal 12 aa], the protein stability index came to 0.732 ± 0.11 under setting [1] and 0.673 ± 0.16 (genetic background: wild type).

SPELHTYETIYD [ROY1 C-terminal 12 aa]: the protein stability index is 0.752 ± 0.0093 under setting [1] and 0.7694 ± 0.0053 (genetic background: wild type).

Consider SPEQLKVSLKWH [SKM1 C-terminal 12 aa], for which the protein stability index turned out to be 0.718 ± 0.01 under setting [1] and 0.699 ± 0.022 (genetic background: wild type).

Take SPGEYEIGDMEN [YDR061W C-terminal 12 aa]: the protein stability index under setting [1] was found to be 0.675 ± 0.016 and the protein stability index (genetic background: wild type) was 0.681 ± 0.048.

Sequence SPVPTKKKGFLR [CDC3 C-terminal 12 aa] had a protein stability index under setting [1] of 0.705 ± 0.017 and a protein stability index (genetic background: wild type) of 0.684 ± 0.012.

Take SQLPSLYAPSYY [SSU72 C-terminal 12 aa]: the protein stability index by setting is: under setting [1], 0.703 ± 0.02; (genetic background: wild type) 0.7264 ± 0.0056.

In turn, SQTKSKQTLFTI [YPR142C C-terminal 12 aa] had a protein stability index under setting [1] of 0.722 ± 0.021 and a protein stability index (genetic background: wild type) of 0.695 ± 0.038.

Take SQTQAGSAYYTK [YOR268C C-terminal 12 aa]: the protein stability index is 0.699 ± 0.026 under setting [1] and 0.688 ± 0.025 (genetic background: wild type).

Take SRGQNTHPSVDK [ESC1 C-terminal 12 aa]: the protein stability index runs as follows: under setting [1], 0.699 ± 0.012; (genetic background: wild type) 0.692 ± 0.029.

As for SRIYQTFTDPSN [ADY4 C-terminal 12 aa], the protein stability index runs as follows: under setting [1], 0.729 ± 0.024; (genetic background: wild type) 0.702 ± 0.061.

For the sequence SRKHTTRSGGRW [HOS3 C-terminal 12 aa], the protein stability index is 0.695 ± 0.017 under setting [1] and 0.6554 ± 0.00091 (genetic background: wild type).

SSAHMSSNAIQR [CDC10 C-terminal 12 aa]: the protein stability index reads like this: under setting [1], 0.7077 ± 0.0023; (genetic background: wild type) 0.721 ± 0.016.

In the case of SSESEAVKKAKS [CIC1 C-terminal 12 aa], the protein stability index runs as follows: under setting [1], 0.668 ± 0.031; (genetic background: wild type) 0.685 ± 0.062.

As for SSKKTIQEEIYI [DPB2 C-terminal 12 aa], the protein stability index is 0.698 ± 0.015 under setting [1] and 0.741 ± 0.056 (genetic background: wild type).

Take SSLARPSLFSSE [YBL077W C-terminal 12 aa]: the protein stability index under setting [1] amounted to 0.735 ± 0.026 and the protein stability index (genetic background: wild type) amounted to 0.714 ± 0.056.

Take SSNEDKKGMCKL [IDP3 C-terminal 12 aa]: the protein stability index was determined as 0.736 ± 0.048 under setting [1] and 0.901 ± 0.037 (genetic background: wild type).

For “SSNTVYDNILVT [YDR034C-A C-terminal 12 aa]”, the protein stability index is 0.721 ± 0.037 under setting [1] and 0.724 ± 0.028 (genetic background: wild type).

Take SSSEQITSSITS [YAR062W C-terminal 12 aa]: the protein stability index reads like this: under setting [1], 0.71 ± 0.025; (genetic background: wild type) 0.67 ± 0.008.

On to SSTDMNGQPIEF [SKA1 C-terminal 12 aa], for which the protein stability index reads like this: under setting [1], 0.6884 ± 0.0061; (genetic background: wild type) 0.67 ± 0.015.

In turn, SSVRTLDSNIWR [ISC10 C-terminal 12 aa] registered a protein stability index under setting [1] of 0.7128 ± 0.0013 and a protein stability index (genetic background: wild type) of 0.686 ± 0.024.

On to SSVVSRVSRSCR [YAR060C C-terminal 12 aa], for which the protein stability index under setting [1] worked out at 0.7343 ± 0.0019 and the protein stability index (genetic background: wild type) came out at 0.668 ± 0.043.

For SSWISKHSSVTD [YDL109C C-terminal 12 aa], the protein stability index by setting is: under setting [1], 0.696 ± 0.0068; (genetic background: wild type) 0.6859 ± 0.002.

Regarding STKFLRSFGQTI [SWP1 C-terminal 12 aa], the protein stability index by setting is: under setting [1], 0.70697 ± 0.0003; (genetic background: wild type) 0.686 ± 0.012.

As to STKTVPLNFLFL [YDL050C C-terminal 12 aa], the protein stability index reads like this: under setting [1], 0.724 ± 0.01; (genetic background: wild type) 0.677 ± 0.032.

STMQERFAESTD [VMA1 C-terminal 12 aa]: the protein stability index is, setting by setting: under setting [1], 0.682 ± 0.011; (genetic background: wild type) 0.706 ± 0.032.

Sequence SVENIFMIWFFY [YJL022W C-terminal 12 aa] had a protein stability index under setting [1] of 0.5089 ± 0.0034 and a protein stability index (genetic background: wild type) of 0.494 ± 0.011.

Source of the values: the supplement of paper PMC10724198.
